Results on 53 sequences are retold here after the supplement of paper PMC10567573.

The nature of the series: protein stability index of a GFP-peptide fusion (GPS, HEK-293T) (PSI 1-6); higher = more stable.
Setting [1] is: treatment: DMSO, c terminus: a fixed tail appended.
[2] abbreviates: treatment: MLN4924 1 uM, 8 h, c terminus: a fixed tail appended.
[3] abbreviates: treatment: DMSO, c terminus: native.
Where [4] appears, read: treatment: MLN4924 1 uM, 8 h, c terminus: native.

± gives the standard deviation.
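Further: 24-mer peptide tiles fused after GFP, lentivirally expressed, FACS-sorted into six equal bins by GFP/DsRed ratio, decoded by Illumina sequencing, PSI is the read-weighted mean bin number.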

VGNNHESWGWDLGRNRLYHDGKNQ [SPSB1] gave a protein stability index under setting [1] of 3.83 ± 0.33 and a protein stability index under setting [2] of 3.87 ± 0.42.

In the case of VGPLAQDPQSPMAGLRWLDSWDF [POMT2], the protein stability index worked out at 3.34 ± 0.38 under setting [3] and 3.36 ± 0.3 under setting [4].

For the sequence VGSDDLERIEARLATLEGDDPSLR [PSD2], the protein stability index was determined as 5.32 ± 0.17 under setting [1] and 5.42 ± 0.17 under setting [2]. Turning to VGSLSWLRKQLQPTHCKYEGPRKA, the protein stability index reads like this: under setting [1], 2.87 ± 0.24; under setting [2], 2.9 ± 0.21. For VHPTKHEVHFLHEESILERVQQHI [MLH1], the protein stability index under setting [1] was 3.18 ± 0.16 and the protein stability index under setting [2] stood at 3.28 ± 0.15. As to VHVISLHIWELSSIKNSLKVAAIS [PTGFR], the protein stability index under setting [1] worked out at 2.86 ± 0.46 and the protein stability index under setting [2] came out at 3.07 ± 0.32.

With VILIFHCEFSSERGPRMCRFIRER [CDC25B], the protein stability index by setting is: under setting [1], 2.78 ± 1.1; under setting [2], 2.64 ± 0.83. Regarding VKAKEQIENYKKQTRNGLGKDHEI [FUT8], the protein stability index under setting [1] was determined as 4.59 ± 0.17 and the protein stability index under setting [2] amounted to 4.76 ± 0.16. Sequence VKEISDKISKEEMVRRLKMVVKTF [PDS5B] registered a protein stability index under setting [2] of 2.24 ± 0.91. VKVLAFTSIGDGPLSSDIQVITQT [PTPRD]: the protein stability index runs as follows: under setting [1], 2.62 ± 0.48; under setting [2], 2.31 ± 0.37. Regarding VLKKQDAFYKEQLARLEERSSEFY [CHCHD3], the protein stability index reads like this: under setting [1], 3.45 ± 0.34; under setting [2], 3.48 ± 0.12.

In the case of VLRCQLSAEEVRFPVSVTQQSPAA [C2CD2L], the protein stability index amounted to 3.3 ± 0.34 under setting [1] and 3.45 ± 0.23 under setting [2]. On to VLVKDNGLGCKDLDLIFHVALPTE [TENT5C], for which the protein stability index is, setting by setting: under setting [1], 2.58 ± 0.57; under setting [2], 2.82 ± 0.73. In the case of VNLLHIESRKSKRRNSEFEIFVDC [TPH1], the protein stability index was 2.26 ± 0.52 under setting [1] and 2.4 ± 0.35 under setting [2].

For VPGLLLSYLMLVTVMMWPLAVYHR [RETREG3], the protein stability index is 3.33 ± 0.44 under setting [1] and 3 ± 0.31 under setting [2]. Consider VPKNYVVVLSDGPALHPAHAPQIS [NCK2], for which the protein stability index was 2.42 ± 0.17 under setting [1] and 2.61 ± 0.31 under setting [2].

Take VPLGPLGETYCEEHGEKIYFFCEN [TRIM15]: the protein stability index is 3.42 ± 0.15 under setting [1] and 3.54 ± 0.36 under setting [2].

As for VPRYTGVAPQDQCKLTCQAQALGY [ADAMTS4], the protein stability index under setting [1] came to 2.4 ± 0.47 and the protein stability index under setting [2] came out at 2.65 ± 0.36. The corresponding values for VPTPKSHLQLLGAVCMFLASKLKE [CCND2] are 2.11 ± 0.28 and 1.92 ± 0.39. Turning to VPYCERDYEKMFGTKCHGCDFKID [PDLIM7], the protein stability index under setting [1] is 3.2 ± 0.55 and the protein stability index under setting [2] amounted to 3.46 ± 0.22. Take VQELVLEDLQDGDVRMGGSFRGAF [NET1]: the protein stability index under setting [1] turned out to be 3.38 ± 0.18 and the protein stability index under setting [2] came out at 3.47 ± 0.12. Taken in the same sequence, the figures for VQETNKQPPQTVNPIGHLPESLTK [ATF4] were 4.79 ± 0.24 and 4.86 ± 0.2. Taken in the same sequence, the figures for VQGGSEAWGPGTLAAAPEGLEDAG [TEX19] were 5.12 ± 0.36 and 5.41 ± 0.2. For VRDQGPSIPLTPGDTPIRKKEELL [FBF1], the protein stability index reads like this: under setting [1], 5.26 ± 0.21; under setting [2], 5.33 ± 0.12. For the sequence VRLMRQLLVINESIESIKWMIEEK [LURAP1L], the protein stability index under setting [1] came out at 2.75 ± 0.35 and the protein stability index under setting [2] is 2.86 ± 0.45. On to VRRRYSDFEWLRSELERESKVVVP [SNX3], for which the protein stability index under setting [1] is 2.17 ± 0.12 and the protein stability index under setting [2] was 2.33 ± 0.17. As for VRSGIVEYLSLVKGGQDVKKKVHL [PRIM1], the protein stability index by setting is: under setting [1], 2.43 ± 0.26; under setting [2], 2.28 ± 0.44.

VRVVFFPLFSNWWIQVTSLRIFVW [PHTF1]: the protein stability index under setting [1] was found to be 2.79 ± 0.69 and the protein stability index under setting [2] was 2.87 ± 0.77.

With VSGDYYPIIYFNDYWNLQKDYYPI [CLPTM1], the protein stability index was 3.03 ± 0.64 under setting [1] and 3.1 ± 0.87 under setting [2]. Regarding VSKVTGWCRDRLLGHREPSAHPVE [TMEM175], the protein stability index is, setting by setting: under setting [1], 3.21 ± 0.22; under setting [2], 3.33 ± 0.099. VSLRYSGATAASETLSGHGPLAQP [ADAMTS4]: the protein stability index by setting is: under setting [1], 3.08 ± 0.15; under setting [2], 3.21 ± 0.066.

In turn, VSSDGTLKYMEVTLRPTDSQSHCY [PCDHGC5] came in with a protein stability index under setting [1] of 2.8 ± 0.38 and a protein stability index under setting [2] of 2.65 ± 0.23.

On to VTDEEIESLMKDGDKNNDGRIDFD [TNNC2], for which the protein stability index came out at 5.52 ± 0.14 under setting [1] and 5.46 ± 0.3 under setting [2]. Regarding VTKMFQKIQDLIDDKDALVFVLID [TRIP13], the protein stability index was found to be 2.72 ± 0.63 under setting [1] and 2.47 ± 0.17 under setting [2]. In the case of VVEEELFHQQGTPRASNRSCAIM [LMNB1], the protein stability index was 2.77 ± 0.3 under setting [3] and 3.16 ± 0.4 under setting [4].

For the sequence VVLDRHGVYGLQRNLLVENIIDIY [TRIM55], the protein stability index under setting [1] came to 2.44 ± 0.8 and the protein stability index under setting [2] worked out at 2.81 ± 0.099. Turning to WAAPRVGPLPPAPAMVRISKPKTF [YPEL3], the protein stability index turned out to be 3.15 ± 0.43 under setting [1] and 3.25 ± 0.18 under setting [2]. The corresponding values for WAISSWFRRGPAPQDQAGPGGAPR [CLPTM1] are 2.75 ± 0.47 and 3.21 ± 0.48. With WALGCVLYELASLKRAFEAANLPA [NEK8], the protein stability index reads like this: under setting [1], 2.99 ± 0.3; under setting [2], 2.9 ± 0.46. Consider WELHSLRHCDDDGRTENGALAPKQ [ZNF24], for which the protein stability index under setting [1] stood at 4.91 ± 0.16 and the protein stability index under setting [2] is 4.95 ± 0.19.

WESSAGGSFTVRADHGEPIGRGTK [HSP90AB1] yielded a protein stability index under setting [1] of 4.83 ± 0.28 and a protein stability index under setting [2] of 4.79 ± 0.55. Consider WILFPLLGCYAVYSLLYLEHKGWY [CLPTM1], for which the protein stability index is, setting by setting: under setting [1], 2.9 ± 0.28; under setting [2], 3.4 ± 0.072. Take WKPPDIKGKLMVCYETLPRGQCLL [SPAG8]: the protein stability index reads like this: under setting [1], 2.27 ± 0.4; under setting [2], 2.32 ± 0.41. Turning to WSIPWKWLFGATAVALGGVALSVV [FKBP8], the protein stability index is, setting by setting: under setting [1], 4.11 ± 0.43; under setting [2], 3.98 ± 0.14. For the sequence WTVWSGNRASLYSFPEPEAAQPMT [PRAME], the protein stability index by setting is: under setting [1], 2.45 ± 0.034; under setting [2], 2.57 ± 0.25. In the case of WVCLAYFTSGFNAAALDYEADGST [SPACA3], the protein stability index runs as follows: under setting [1], 2.9 ± 0.46; under setting [2], 2.91 ± 0.25.

Regarding WVGFDDVESFKTKVSYLKQKGLGG [CHIT1], the protein stability index reads like this: under setting [1], 2.36 ± 0.33; under setting [2], 2.69 ± 0.36. For WWTNWVIPAISAVAVALMYRLYMA [CYB5A], the protein stability index was 3.22 ± 0.15 under setting [1] and 3.29 ± 0.36 under setting [2]. The corresponding values for YFAIKQEVVTPDNMCMGRTSRGKL [ETS1] are 3.5 ± 0.23 and 3.49 ± 0.22. As for YFFCENDAEFLCVFCREGPTHQAH [TRIM15], the protein stability index runs as follows: under setting [1], 2.26 ± 0.35; under setting [2], 2.33 ± 0.54.

Turning to YFFPVIFSKASSSLQLVFGIELME [MAGEA3], the protein stability index runs as follows: under setting [1], 3.44 ± 0.27; under setting [2], 2.96 ± 0.25.

For YFKCVQKDIQPYMRRMVATWMLEV [CCND2], the protein stability index turned out to be 2.71 ± 0.55 under setting [1] and 2.4 ± 0.45 under setting [2]. As to YFRHADPTWQNSIRHNLSLNKCFI [FOXJ1], the protein stability index under setting [1] amounted to 2.45 ± 0.41 and the protein stability index under setting [2] was 2.23 ± 0.31.
